T1: FcγRIIa H (human, UniProt P12318 34-217)
T1 construct: extracellular domain; also called FcgRIIa H type; 2aH; not shown: His tag at the C terminus
T1 sequence (looked up): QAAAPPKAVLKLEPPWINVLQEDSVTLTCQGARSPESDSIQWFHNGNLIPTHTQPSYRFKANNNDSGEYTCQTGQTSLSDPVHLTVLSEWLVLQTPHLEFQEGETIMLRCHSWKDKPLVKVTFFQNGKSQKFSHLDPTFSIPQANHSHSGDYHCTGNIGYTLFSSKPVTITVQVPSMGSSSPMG

B1: GpH7-A5/GpH7-B3 variant K326_10E/GpL16-k0 (antibody, human IgG1, kappa)
heavy 1: not shown
heavy 2: not shown
light: DIVMTQSPLSLPVTPGEPASISCQASESLVHSNRNTYLHWYLQKPGQSPQLLIYKVSNRFSGVPDRFSGSGSGTDFTLKISRVEAEDVGVYYCSQNTHVPPTFGQGTKVEIERTVAAPSVFIFPPSDEQLKSGTASVVCLLNNFYPREAKVQWKVDNALQSGNSQESVTEQDSKDSTYSLSSTLTLSKADYEKHKVYACEVTHQGLSSPVTKSFNRGEC
notes: also called He Ab K326_10E
B2: GpH7-A5/GpH7-B3 variant L235_20W/GpL16-k0 (antibody, human IgG1, kappa)
heavy 1: not shown
heavy 2: not shown
light: DIVMTQSPLSLPVTPGEPASISCQASESLVHSNRNTYLHWYLQKPGQSPQLLIYKVSNRFSGVPDRFSGSGSGTDFTLKISRVEAEDVGVYYCSQNTHVPPTFGQGTKVEIERTVAAPSVFIFPPSDEQLKSGTASVVCLLNNFYPREAKVQWKVDNALQSGNSQESVTEQDSKDSTYSLSSTLTLSKADYEKHKVYACEVTHQGLSSPVTKSFNRGEC
notes: also called He Ab L235_20W
B3: GpH7-A5/GpH7-B3 variant K334_04F/GpL16-k0 (antibody, human IgG1, kappa)
heavy 1: not shown
heavy 2: not shown
light: DIVMTQSPLSLPVTPGEPASISCQASESLVHSNRNTYLHWYLQKPGQSPQLLIYKVSNRFSGVPDRFSGSGSGTDFTLKISRVEAEDVGVYYCSQNTHVPPTFGQGTKVEIERTVAAPSVFIFPPSDEQLKSGTASVVCLLNNFYPREAKVQWKVDNALQSGNSQESVTEQDSKDSTYSLSSTLTLSKADYEKHKVYACEVTHQGLSSPVTKSFNRGEC
notes: also called He Ab K334_04F
B4: GpH7-A5/GpH7-B3 variant K334_16H/GpL16-k0 (antibody, human IgG1, kappa)
heavy 1: not shown
heavy 2: not shown
light: DIVMTQSPLSLPVTPGEPASISCQASESLVHSNRNTYLHWYLQKPGQSPQLLIYKVSNRFSGVPDRFSGSGSGTDFTLKISRVEAEDVGVYYCSQNTHVPPTFGQGTKVEIERTVAAPSVFIFPPSDEQLKSGTASVVCLLNNFYPREAKVQWKVDNALQSGNSQESVTEQDSKDSTYSLSSTLTLSKADYEKHKVYACEVTHQGLSSPVTKSFNRGEC
notes: also called He Ab K334_16H
B5: GpH7-A5/GpH7-B3 variant L328_13S/GpL16-k0 (antibody, human IgG1, kappa)
heavy 1: not shown
heavy 2: not shown
light: DIVMTQSPLSLPVTPGEPASISCQASESLVHSNRNTYLHWYLQKPGQSPQLLIYKVSNRFSGVPDRFSGSGSGTDFTLKISRVEAEDVGVYYCSQNTHVPPTFGQGTKVEIERTVAAPSVFIFPPSDEQLKSGTASVVCLLNNFYPREAKVQWKVDNALQSGNSQESVTEQDSKDSTYSLSSTLTLSKADYEKHKVYACEVTHQGLSSPVTKSFNRGEC
notes: also called He Ab L328_13S
B6: GpH7-A5/GpH7-B3 variant K334_15Y/GpL16-k0 (antibody, human IgG1, kappa)
heavy 1: not shown
heavy 2: not shown
light: DIVMTQSPLSLPVTPGEPASISCQASESLVHSNRNTYLHWYLQKPGQSPQLLIYKVSNRFSGVPDRFSGSGSGTDFTLKISRVEAEDVGVYYCSQNTHVPPTFGQGTKVEIERTVAAPSVFIFPPSDEQLKSGTASVVCLLNNFYPREAKVQWKVDNALQSGNSQESVTEQDSKDSTYSLSSTLTLSKADYEKHKVYACEVTHQGLSSPVTKSFNRGEC
notes: also called He Ab K334_15Y
B7: GpH7-A5/GpH7-B3 variant L328_06M/GpL16-k0 (antibody, human IgG1, kappa)
heavy 1: not shown
heavy 2: not shown
light: DIVMTQSPLSLPVTPGEPASISCQASESLVHSNRNTYLHWYLQKPGQSPQLLIYKVSNRFSGVPDRFSGSGSGTDFTLKISRVEAEDVGVYYCSQNTHVPPTFGQGTKVEIERTVAAPSVFIFPPSDEQLKSGTASVVCLLNNFYPREAKVQWKVDNALQSGNSQESVTEQDSKDSTYSLSSTLTLSKADYEKHKVYACEVTHQGLSSPVTKSFNRGEC
notes: also called He Ab L328_06M
B8: GpH7-A5/GpH7-B3 variant K334_03V/GpL16-k0 (antibody, human IgG1, kappa)
heavy 1: not shown
heavy 2: not shown
light: DIVMTQSPLSLPVTPGEPASISCQASESLVHSNRNTYLHWYLQKPGQSPQLLIYKVSNRFSGVPDRFSGSGSGTDFTLKISRVEAEDVGVYYCSQNTHVPPTFGQGTKVEIERTVAAPSVFIFPPSDEQLKSGTASVVCLLNNFYPREAKVQWKVDNALQSGNSQESVTEQDSKDSTYSLSSTLTLSKADYEKHKVYACEVTHQGLSSPVTKSFNRGEC
notes: also called He Ab K334_03V
B9: GpH7-A5/GpH7-B3 variant L328_14T/GpL16-k0 (antibody, human IgG1, kappa)
heavy 1: not shown
heavy 2: not shown
light: DIVMTQSPLSLPVTPGEPASISCQASESLVHSNRNTYLHWYLQKPGQSPQLLIYKVSNRFSGVPDRFSGSGSGTDFTLKISRVEAEDVGVYYCSQNTHVPPTFGQGTKVEIERTVAAPSVFIFPPSDEQLKSGTASVVCLLNNFYPREAKVQWKVDNALQSGNSQESVTEQDSKDSTYSLSSTLTLSKADYEKHKVYACEVTHQGLSSPVTKSFNRGEC
notes: also called He Ab L328_14T
B10: GpH7-A5/GpH7-B3 variant P271_01G/GpL16-k0 (antibody, human IgG1, kappa)
heavy 1: not shown
heavy 2: not shown
light: DIVMTQSPLSLPVTPGEPASISCQASESLVHSNRNTYLHWYLQKPGQSPQLLIYKVSNRFSGVPDRFSGSGSGTDFTLKISRVEAEDVGVYYCSQNTHVPPTFGQGTKVEIERTVAAPSVFIFPPSDEQLKSGTASVVCLLNNFYPREAKVQWKVDNALQSGNSQESVTEQDSKDSTYSLSSTLTLSKADYEKHKVYACEVTHQGLSSPVTKSFNRGEC
notes: also called He Ab P271_01G
B11: GpH7-A5/GpH7-B3 variant K334_14T/GpL16-k0 (antibody, human IgG1, kappa)
heavy 1: not shown
heavy 2: not shown
light: DIVMTQSPLSLPVTPGEPASISCQASESLVHSNRNTYLHWYLQKPGQSPQLLIYKVSNRFSGVPDRFSGSGSGTDFTLKISRVEAEDVGVYYCSQNTHVPPTFGQGTKVEIERTVAAPSVFIFPPSDEQLKSGTASVVCLLNNFYPREAKVQWKVDNALQSGNSQESVTEQDSKDSTYSLSSTLTLSKADYEKHKVYACEVTHQGLSSPVTKSFNRGEC
notes: also called He Ab K334_14T
B12: GpH7-A5/GpH7-B3 variant K326_14T/GpL16-k0 (antibody, human IgG1, kappa)
heavy 1: not shown
heavy 2: not shown
light: DIVMTQSPLSLPVTPGEPASISCQASESLVHSNRNTYLHWYLQKPGQSPQLLIYKVSNRFSGVPDRFSGSGSGTDFTLKISRVEAEDVGVYYCSQNTHVPPTFGQGTKVEIERTVAAPSVFIFPPSDEQLKSGTASVVCLLNNFYPREAKVQWKVDNALQSGNSQESVTEQDSKDSTYSLSSTLTLSKADYEKHKVYACEVTHQGLSSPVTKSFNRGEC
notes: also called He Ab K326_14T
B13: GpH7-A5/GpH7-B3 variant K326_19Q/GpL16-k0 (antibody, human IgG1, kappa)
heavy 1: not shown
heavy 2: not shown
light: DIVMTQSPLSLPVTPGEPASISCQASESLVHSNRNTYLHWYLQKPGQSPQLLIYKVSNRFSGVPDRFSGSGSGTDFTLKISRVEAEDVGVYYCSQNTHVPPTFGQGTKVEIERTVAAPSVFIFPPSDEQLKSGTASVVCLLNNFYPREAKVQWKVDNALQSGNSQESVTEQDSKDSTYSLSSTLTLSKADYEKHKVYACEVTHQGLSSPVTKSFNRGEC
notes: also called He Ab K326_19Q
B14: GpH7-A5/GpH7-B3 variant K334_07I/GpL16-k0 (antibody, human IgG1, kappa)
heavy 1: not shown
heavy 2: not shown
light: DIVMTQSPLSLPVTPGEPASISCQASESLVHSNRNTYLHWYLQKPGQSPQLLIYKVSNRFSGVPDRFSGSGSGTDFTLKISRVEAEDVGVYYCSQNTHVPPTFGQGTKVEIERTVAAPSVFIFPPSDEQLKSGTASVVCLLNNFYPREAKVQWKVDNALQSGNSQESVTEQDSKDSTYSLSSTLTLSKADYEKHKVYACEVTHQGLSSPVTKSFNRGEC
notes: also called He Ab K334_07I
B15: GpH7-A5/GpH7-B3 variant K334_08L/GpL16-k0 (antibody, human IgG1, kappa)
heavy 1: not shown
heavy 2: not shown
light: DIVMTQSPLSLPVTPGEPASISCQASESLVHSNRNTYLHWYLQKPGQSPQLLIYKVSNRFSGVPDRFSGSGSGTDFTLKISRVEAEDVGVYYCSQNTHVPPTFGQGTKVEIERTVAAPSVFIFPPSDEQLKSGTASVVCLLNNFYPREAKVQWKVDNALQSGNSQESVTEQDSKDSTYSLSSTLTLSKADYEKHKVYACEVTHQGLSSPVTKSFNRGEC
notes: also called He Ab K334_08L
B16: GpH7-A5/GpH7-B3 variant L328_02A/GpL16-k0 (antibody, human IgG1, kappa)
heavy 1: not shown
heavy 2: not shown
light: DIVMTQSPLSLPVTPGEPASISCQASESLVHSNRNTYLHWYLQKPGQSPQLLIYKVSNRFSGVPDRFSGSGSGTDFTLKISRVEAEDVGVYYCSQNTHVPPTFGQGTKVEIERTVAAPSVFIFPPSDEQLKSGTASVVCLLNNFYPREAKVQWKVDNALQSGNSQESVTEQDSKDSTYSLSSTLTLSKADYEKHKVYACEVTHQGLSSPVTKSFNRGEC
notes: also called He Ab L328_02A

This experiment has as its target T1, FcγRIIa H. The experiment in a line: SPR Biacore, relative binding. A general note: In SPR one partner is held on a chip, and binding of the other changes the refractive index at the surface.
For the molecule B1, the He/Con_2aH was 102 % of GpH7-A5/GpH7-B3/GpL16-k0 (=100).
Turning to B2, the He/Con_2aH is 118 % of GpH7-A5/GpH7-B3/GpL16-k0 (=100).
With B3, the He/Con_2aH was 106 % of GpH7-A5/GpH7-B3/GpL16-k0 (=100).
As for B4, the He/Con_2aH was 104 % of GpH7-A5/GpH7-B3/GpL16-k0 (=100).
On to B5, for which the He/Con_2aH is 123 % of GpH7-A5/GpH7-B3/GpL16-k0 (=100).
As to B6, the He/Con_2aH is 106 % of GpH7-A5/GpH7-B3/GpL16-k0 (=100).
In the case of B7, the He/Con_2aH is 104 % of GpH7-A5/GpH7-B3/GpL16-k0 (=100).
As for B8, the He/Con_2aH is 109 % of GpH7-A5/GpH7-B3/GpL16-k0 (=100).
For the molecule B9, the He/Con_2aH was 116 % of GpH7-A5/GpH7-B3/GpL16-k0 (=100).
With B10, the He/Con_2aH is 107 % of GpH7-A5/GpH7-B3/GpL16-k0 (=100).
In the case of B11, the He/Con_2aH is 103 % of GpH7-A5/GpH7-B3/GpL16-k0 (=100).
On to B12, for which the He/Con_2aH is 114 % of GpH7-A5/GpH7-B3/GpL16-k0 (=100).
Consider B13, for which the He/Con_2aH is 101 % of GpH7-A5/GpH7-B3/GpL16-k0 (=100).
For the molecule B14, the He/Con_2aH is 110 % of GpH7-A5/GpH7-B3/GpL16-k0 (=100).
The value for B15 was 104 % of GpH7-A5/GpH7-B3/GpL16-k0 (=100); that for B16 was 130 % of GpH7-A5/GpH7-B3/GpL16-k0 (=100).

The values above are taken from patent US20180155451A1 (published 2018).
